What was measured:
[1] = target: ADAM17 cytoplasmic domain, wild type (ADAM17cyto^WT), recombinant (UniProt P78536 693-824); assay: ELISA
[2] = target: ADAM17 cytoplasmic domain mutant F730A (ADAM17cyto^F730A), recombinant (UniProt P78536 693-824, F730A); assay: ELISA
Chain of ADAM17 cytoplasmic domain mutant F730A (ADAM17cyto^F730A), recombinant (P78536 693-824 F730A): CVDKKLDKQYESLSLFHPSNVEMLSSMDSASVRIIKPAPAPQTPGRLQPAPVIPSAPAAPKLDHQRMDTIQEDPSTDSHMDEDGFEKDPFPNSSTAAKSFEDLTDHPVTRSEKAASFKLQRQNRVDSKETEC

Chain of ADAM17 cytoplasmic domain, wild type (ADAM17cyto^WT), recombinant (P78536 693-824): as the sequence (P78536 693-824 F730A) above, with A38F counted along it

B1: Thioredoxin-1 (Trx-1), recombinant (enzyme, human, UniProt P10599 1-105, looked up)
chain: MVKQIESKTAFQEALDAAGDKLVVVDFSATWCGPCKMIKPFFHSLSEKYSNVIFLEVDVDDCQDVASECEVKCMPTFQFFKKGQKVGEFSGANKEKLEATINELV
binding result [1]: binds | binding result [2]: binds
